Values of other authors as cited in article PMC4798892.

Key:
[1] = target: Histone H3 (H3K9me3S10ph) (Homo sapiens) (UniProt P68431)
[2] = target: Histone H3 (H3K4me0) (Homo sapiens) (UniProt P68431)
[3] = target: Histone H3 (H3K9me3) (Homo sapiens) (UniProt P68431)

Kd [1]: 190 nM
Kd [2]: 3000 nM
Kd [3]: 110 nM
Substance: ATRX ADD (from UniProt P46100)
